Measurements as given in patent US20230279087A1 (INFLARX, published 2023).

Key:
recombinant human C5a [1] = biological target: T1, recombinant human C5a (human, UniProt P01031 678-751); experiment: ELISA on C5a (ABZENA), 0-100 ng/mL antibody
T1 construct: Bought rhC5a (Hycult HC2101 for the ELISA, Sigma C5788 for the CD11b assay); also called rhC5a; hC5a
T1 sequence: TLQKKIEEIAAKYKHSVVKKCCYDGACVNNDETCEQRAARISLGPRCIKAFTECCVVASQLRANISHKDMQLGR

recombinant human C5a [2] = biological target: T1, recombinant human C5a; experiment: cell-based or functional assay

B1: VH4Vk3 (IFX-2 clone) (antibody, IgG4)
heavy: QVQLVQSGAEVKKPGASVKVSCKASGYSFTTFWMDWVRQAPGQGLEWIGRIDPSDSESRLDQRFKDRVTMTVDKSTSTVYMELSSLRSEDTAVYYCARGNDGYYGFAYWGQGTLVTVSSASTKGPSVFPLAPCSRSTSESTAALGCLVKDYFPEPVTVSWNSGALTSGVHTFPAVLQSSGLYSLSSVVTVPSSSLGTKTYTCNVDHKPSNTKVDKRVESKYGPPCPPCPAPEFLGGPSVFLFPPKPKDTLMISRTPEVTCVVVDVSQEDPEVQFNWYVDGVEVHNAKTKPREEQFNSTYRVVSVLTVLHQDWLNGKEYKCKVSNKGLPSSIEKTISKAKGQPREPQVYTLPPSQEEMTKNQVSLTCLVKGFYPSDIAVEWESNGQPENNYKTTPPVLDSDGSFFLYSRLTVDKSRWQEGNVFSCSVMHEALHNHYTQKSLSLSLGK
light: DIQLTQSPSSLSASVGDRVTITCKASQSVDYDGDSYMKWYQQKPGKAPKLLIYAASNLQSGIPSRFSGSGSGTDFTLTISSLQPEDFATYYCQQSNEDPYTFGQGTKLEIK
notes: Humanized IgG4 (S241P) / kappa; also called VH4/Vκ3; not shown: human kappa light chain constant domain
Relative EC50 (recombinant human C5a [1]): 0.91 relative to IFX-1 (VH0Vk0)
relative blocking activity on rhC5a-induced CD11b upregulation on granulocytes in human whole blood (flow cytometry MFI), 16.7 nM rhC5a, Ag:Ab 1:1, IFX-1 set to 100% [lower graph] (recombinant human C5a [2]): 102%

B2: VH5Vk1 (IFX-2 clone) (antibody, IgG4, V domains shown)
VH: QVQLVQSGAEVKKPGASVKVSCKASGYSFTTFWMDWVRQAPGQGLEWMGRIDPSDSESRLDQKFKDRVTMTVDKSTSTVYMELSSLRSEDTAVYYCARGNDGYYGFAYWGQGTLVTVSS
VL: DIVLTQSPASLAASVGDRVTITCKASQSVDYDGDSYMKWYQQKPGKAPKLLIYAASNLQSGIPSRFSGSGSGTDFTLTISSLQEEDFATYYCQQSNEDPYTFGQGTKLEIK
notes: Humanized IgG4 (S241P) / kappa; also called VH5/Vκ1; not shown: human kappa light chain constant domain
Relative EC50 (recombinant human C5a [1]): 1.28 relative to IFX-1 (VH0Vk0)
relative blocking activity on rhC5a-induced CD11b upregulation on granulocytes in human whole blood (flow cytometry MFI), 16.7 nM rhC5a, Ag:Ab 1:1, IFX-1 set to 100% [lower graph] (recombinant human C5a [2]): 101%

B3: VH3Vk2 (IFX-2 clone) (antibody, IgG4, V domains shown)
VH: QVQLVQSGAEVKKPGASVKVSCKASGYSFTTFWMDWVRQAPGQGLEWIGRIDPSDSESRLDQRFKDRATLTVDKSTSTVYMELSSLRSEDTAVYYCARGNDGYYGFAYWGQGTLVTVSS
VL: DIVLTQSPASLSASVGDRVTITCKASQSVDYDGDSYMKWYQQKPGKAPKLLIYAASNLQSGIPSRFSGSGSGTDFTLTISSLQPEDFATYYCQQSNEDPYTFGQGTKLEIK
notes: Humanized IgG4 (S241P) / kappa; also called VH3/Vκ2; not shown: human kappa light chain constant domain
Relative EC50 (recombinant human C5a [1]): 1.05 relative to IFX-1 (VH0Vk0)
relative blocking activity on rhC5a-induced CD11b upregulation on granulocytes in human whole blood (flow cytometry MFI), 16.7 nM rhC5a, Ag:Ab 1:1, IFX-1 set to 100% [upper graph] (recombinant human C5a [2]): 96%

B4: VH3Vk4 (IFX-2 clone) (antibody, IgG4, V domains shown)
VH: QVQLVQSGAEVKKPGASVKVSCKASGYSFTTFWMDWVRQAPGQGLEWIGRIDPSDSESRLDQRFKDRATLTVDKSTSTVYMELSSLRSEDTAVYYCARGNDGYYGFAYWGQGTLVTVSS
VL: DIQMTQSPSSLSASVGDRVTITCKASQSVDYDGDSYMKWYQQKPGKAPKLLIYAASNLQSGVPSRFSGSGSGTDFTLTISSLQPEDFATYYCQQSNEDPYTFGQGTKLEIK
notes: Humanized IgG4 (S241P) / kappa; also called VH3/Vκ4; not shown: human kappa light chain constant domain
Relative EC50 (recombinant human C5a [1]): 0.86 relative to IFX-1 (VH0Vk0)
relative blocking activity on rhC5a-induced CD11b upregulation on granulocytes in human whole blood (flow cytometry MFI), 16.7 nM rhC5a, Ag:Ab 1:1, IFX-1 set to 100% [lower graph] (recombinant human C5a [2]): 103%

B5: VH4Vk4 (IFX-2 clone) (antibody, IgG4, V domains shown)
VH: QVQLVQSGAEVKKPGASVKVSCKASGYSFTTFWMDWVRQAPGQGLEWIGRIDPSDSESRLDQRFKDRVTMTVDKSTSTVYMELSSLRSEDTAVYYCARGNDGYYGFAYWGQGTLVTVSS
VL: DIQMTQSPSSLSASVGDRVTITCKASQSVDYDGDSYMKWYQQKPGKAPKLLIYAASNLQSGVPSRFSGSGSGTDFTLTISSLQPEDFATYYCQQSNEDPYTFGQGTKLEIK
notes: Humanized IgG4 (S241P) / kappa; also called VH4/Vκ4; not shown: human kappa light chain constant domain
Relative EC50 (recombinant human C5a [1]): 1.03 relative to IFX-1 (VH0Vk0)
relative blocking activity on rhC5a-induced CD11b upregulation on granulocytes in human whole blood (flow cytometry MFI), 16.7 nM rhC5a, Ag:Ab 1:1, IFX-1 set to 100% [upper graph] (recombinant human C5a [2]): 102%

B6: VH2Vk3 (IFX-2 clone) (antibody, IgG4, V domains shown)
VH: QVQLVQSGAEVKKPGASVKISCKASGYSFTTFWMDWVKQAPGQGLEWIGRIDPSDSESRLDQRFKDRATLTVDKSTSTVYMELSSLRSEDTAVYYCARGNDGYYGFAYWGQGTLVTVSS
VL: DIQLTQSPSSLSASVGDRVTITCKASQSVDYDGDSYMKWYQQKPGKAPKLLIYAASNLQSGIPSRFSGSGSGTDFTLTISSLQPEDFATYYCQQSNEDPYTFGQGTKLEIK
notes: Humanized IgG4 (S241P) / kappa; also called VH2/Vκ3; not shown: human kappa light chain constant domain
Relative EC50 (recombinant human C5a [1]): 1.09 relative to IFX-1 (VH0Vk0)

B7: VH5Vk4 (IFX-2 clone) (antibody, IgG4, V domains shown)
VH: QVQLVQSGAEVKKPGASVKVSCKASGYSFTTFWMDWVRQAPGQGLEWMGRIDPSDSESRLDQKFKDRVTMTVDKSTSTVYMELSSLRSEDTAVYYCARGNDGYYGFAYWGQGTLVTVSS
VL: DIQMTQSPSSLSASVGDRVTITCKASQSVDYDGDSYMKWYQQKPGKAPKLLIYAASNLQSGVPSRFSGSGSGTDFTLTISSLQPEDFATYYCQQSNEDPYTFGQGTKLEIK
notes: Humanized IgG4 (S241P) / kappa; also called VH5/Vκ4; not shown: human kappa light chain constant domain
Relative EC50 (recombinant human C5a [1]): 1.53 relative to IFX-1 (VH0Vk0)
relative blocking activity on rhC5a-induced CD11b upregulation on granulocytes in human whole blood (flow cytometry MFI), 16.7 nM rhC5a, Ag:Ab 1:1, IFX-1 set to 100% [upper graph] (recombinant human C5a [2]): 94%

B8: VH5Vk2 (IFX-2 clone) (antibody, IgG4)
heavy: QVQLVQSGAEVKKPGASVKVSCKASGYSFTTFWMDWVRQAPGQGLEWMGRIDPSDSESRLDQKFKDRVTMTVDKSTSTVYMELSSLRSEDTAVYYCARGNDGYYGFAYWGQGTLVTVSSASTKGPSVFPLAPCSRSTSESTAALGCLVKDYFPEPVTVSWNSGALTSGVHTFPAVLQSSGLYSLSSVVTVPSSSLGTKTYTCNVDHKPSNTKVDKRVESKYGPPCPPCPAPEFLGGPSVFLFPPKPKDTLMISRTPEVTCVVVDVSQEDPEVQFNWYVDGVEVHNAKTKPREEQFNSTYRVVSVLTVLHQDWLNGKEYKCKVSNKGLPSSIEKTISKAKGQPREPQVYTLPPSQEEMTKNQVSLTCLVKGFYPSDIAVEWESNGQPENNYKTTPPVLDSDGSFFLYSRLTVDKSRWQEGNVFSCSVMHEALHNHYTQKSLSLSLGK
light: DIVLTQSPASLSASVGDRVTITCKASQSVDYDGDSYMKWYQQKPGKAPKLLIYAASNLQSGIPSRFSGSGSGTDFTLTISSLQPEDFATYYCQQSNEDPYTFGQGTKLEIK
notes: Humanized IgG4 (S241P) / kappa; also called VH5/Vκ2; not shown: human kappa light chain constant domain
Relative EC50 (recombinant human C5a [1]): 1.05 relative to IFX-1 (VH0Vk0)
relative blocking activity on rhC5a-induced CD11b upregulation on granulocytes in human whole blood (flow cytometry MFI), 16.7 nM rhC5a, Ag:Ab 1:1, IFX-1 set to 100% [lower graph] (recombinant human C5a [2]): 103%

B9: VH4Vk1 (IFX-2 clone) (antibody, IgG4, V domains shown)
VH: QVQLVQSGAEVKKPGASVKVSCKASGYSFTTFWMDWVRQAPGQGLEWIGRIDPSDSESRLDQRFKDRVTMTVDKSTSTVYMELSSLRSEDTAVYYCARGNDGYYGFAYWGQGTLVTVSS
VL: DIVLTQSPASLAASVGDRVTITCKASQSVDYDGDSYMKWYQQKPGKAPKLLIYAASNLQSGIPSRFSGSGSGTDFTLTISSLQEEDFATYYCQQSNEDPYTFGQGTKLEIK
notes: Humanized IgG4 (S241P) / kappa; also called VH4/Vκ1; not shown: human kappa light chain constant domain
Relative EC50 (recombinant human C5a [1]): 1 relative to IFX-1 (VH0Vk0)
relative blocking activity on rhC5a-induced CD11b upregulation on granulocytes in human whole blood (flow cytometry MFI), 16.7 nM rhC5a, Ag:Ab 1:1, IFX-1 set to 100% [upper graph] (recombinant human C5a [2]): 98%

B10: VH4Vk2 (IFX-2 clone) (antibody, IgG4)
heavy: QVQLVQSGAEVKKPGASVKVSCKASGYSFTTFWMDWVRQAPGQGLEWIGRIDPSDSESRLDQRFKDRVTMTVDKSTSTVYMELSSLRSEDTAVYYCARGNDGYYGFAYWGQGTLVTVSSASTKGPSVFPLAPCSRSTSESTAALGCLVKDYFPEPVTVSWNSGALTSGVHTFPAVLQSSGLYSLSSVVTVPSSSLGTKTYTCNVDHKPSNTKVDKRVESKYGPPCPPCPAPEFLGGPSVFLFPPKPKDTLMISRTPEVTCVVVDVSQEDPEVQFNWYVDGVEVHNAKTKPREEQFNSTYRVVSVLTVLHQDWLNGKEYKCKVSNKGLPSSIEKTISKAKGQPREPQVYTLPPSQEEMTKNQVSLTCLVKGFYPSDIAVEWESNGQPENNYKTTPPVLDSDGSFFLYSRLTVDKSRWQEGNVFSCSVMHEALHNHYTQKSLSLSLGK
light: DIVLTQSPASLSASVGDRVTITCKASQSVDYDGDSYMKWYQQKPGKAPKLLIYAASNLQSGIPSRFSGSGSGTDFTLTISSLQPEDFATYYCQQSNEDPYTFGQGTKLEIK
notes: Humanized IgG4 (S241P) / kappa; also called VH4/Vκ2; not shown: human kappa light chain constant domain
Relative EC50 (recombinant human C5a [1]): 0.86 relative to IFX-1 (VH0Vk0)
relative blocking activity on rhC5a-induced CD11b upregulation on granulocytes in human whole blood (flow cytometry MFI), 16.7 nM rhC5a, Ag:Ab 1:1, IFX-1 set to 100% [lower graph] (recombinant human C5a [2]): 104%

B11: VH5Vk3 (IFX-2 clone) (antibody, IgG4)
heavy: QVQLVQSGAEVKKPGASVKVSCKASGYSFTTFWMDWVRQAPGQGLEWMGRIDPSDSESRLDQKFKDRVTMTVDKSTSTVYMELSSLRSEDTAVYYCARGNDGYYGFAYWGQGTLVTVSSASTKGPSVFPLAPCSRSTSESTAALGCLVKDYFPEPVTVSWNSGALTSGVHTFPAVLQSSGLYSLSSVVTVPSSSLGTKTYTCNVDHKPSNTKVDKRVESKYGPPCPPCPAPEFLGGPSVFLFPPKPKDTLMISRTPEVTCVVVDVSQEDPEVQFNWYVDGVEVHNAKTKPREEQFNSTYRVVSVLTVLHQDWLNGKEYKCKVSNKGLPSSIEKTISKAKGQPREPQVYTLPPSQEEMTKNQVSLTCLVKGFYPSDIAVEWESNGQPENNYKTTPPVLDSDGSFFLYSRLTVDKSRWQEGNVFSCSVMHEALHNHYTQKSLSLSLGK
light: DIQLTQSPSSLSASVGDRVTITCKASQSVDYDGDSYMKWYQQKPGKAPKLLIYAASNLQSGIPSRFSGSGSGTDFTLTISSLQPEDFATYYCQQSNEDPYTFGQGTKLEIK
notes: Humanized IgG4 (S241P) / kappa; also called VH5/Vκ3; not shown: human kappa light chain constant domain
Relative EC50 (recombinant human C5a [1]): 1.14 relative to IFX-1 (VH0Vk0)
relative blocking activity on rhC5a-induced CD11b upregulation on granulocytes in human whole blood (flow cytometry MFI), 16.7 nM rhC5a, Ag:Ab 1:1, IFX-1 set to 100% [upper graph] (recombinant human C5a [2]): 96%

B12: VH2Vk4 (IFX-2 clone) (antibody, IgG4, V domains shown)
VH: QVQLVQSGAEVKKPGASVKISCKASGYSFTTFWMDWVKQAPGQGLEWIGRIDPSDSESRLDQRFKDRATLTVDKSTSTVYMELSSLRSEDTAVYYCARGNDGYYGFAYWGQGTLVTVSS
VL: DIQMTQSPSSLSASVGDRVTITCKASQSVDYDGDSYMKWYQQKPGKAPKLLIYAASNLQSGVPSRFSGSGSGTDFTLTISSLQPEDFATYYCQQSNEDPYTFGQGTKLEIK
notes: Humanized IgG4 (S241P) / kappa; also called VH2/Vκ4; not shown: human kappa light chain constant domain
Relative EC50 (recombinant human C5a [1]): 0.99 relative to IFX-1 (VH0Vk0)

B13: IFX-1 (VH0/Vκ0), chimeric anti-human C5a IgG4 antibody (antibody, V domains shown)
VH: QVQLQQSGPQLVRPGTSVKISCKASGYSFTTFWMDWVKQRPGQGLEWIGRIDPSDSESRLDQRFKDRATLTVDKSSSTVYMQLSSPTSEDSAVYYCARGNDGYYGFAYWGQGTLVTVSS
VL: DIVLTQSPASLAVSLGQRATISCKASQSVDYDGDSYMKWYQQKPGQPPKLLIYAASNLQSGIPARFSGSGSGTDFTLNIHPVEEEDAATYYCQQSNEDPYTFGGGTKLEIK
notes: also called VH0Vk0; VH0Vk0 (IFX-1); not shown: human kappa light chain constant domain
Relative EC50 (recombinant human C5a [1]): 1 relative to IFX-1 (VH0Vk0)
